Source: patent US20240076680 (RHEINISCHE FRIEDRICH-WILHELMS-UNIVERSITÄt BONN, published 2024)

Key:
ACE2 ectodomain (ACE2e) = ACE2 ectodomain (ACE2e) (Homo sapiens, UniProt Q9BYF1 Q9BYF1:19-615); assay: flow; settings: tags: N-terminal myc, C-terminal HRV 3C site and 8xHis; FreeStyle 293F expressed
[1] = molecular target: SARS-CoV-2 spike receptor-binding domain (RBD) (SARS-CoV-2, UniProt P0DTC2 P0DTC2:319-591); assay: flow

ACE2 ectodomain (ACE2e), sequence (Q9BYF1 19-615, one chain of several): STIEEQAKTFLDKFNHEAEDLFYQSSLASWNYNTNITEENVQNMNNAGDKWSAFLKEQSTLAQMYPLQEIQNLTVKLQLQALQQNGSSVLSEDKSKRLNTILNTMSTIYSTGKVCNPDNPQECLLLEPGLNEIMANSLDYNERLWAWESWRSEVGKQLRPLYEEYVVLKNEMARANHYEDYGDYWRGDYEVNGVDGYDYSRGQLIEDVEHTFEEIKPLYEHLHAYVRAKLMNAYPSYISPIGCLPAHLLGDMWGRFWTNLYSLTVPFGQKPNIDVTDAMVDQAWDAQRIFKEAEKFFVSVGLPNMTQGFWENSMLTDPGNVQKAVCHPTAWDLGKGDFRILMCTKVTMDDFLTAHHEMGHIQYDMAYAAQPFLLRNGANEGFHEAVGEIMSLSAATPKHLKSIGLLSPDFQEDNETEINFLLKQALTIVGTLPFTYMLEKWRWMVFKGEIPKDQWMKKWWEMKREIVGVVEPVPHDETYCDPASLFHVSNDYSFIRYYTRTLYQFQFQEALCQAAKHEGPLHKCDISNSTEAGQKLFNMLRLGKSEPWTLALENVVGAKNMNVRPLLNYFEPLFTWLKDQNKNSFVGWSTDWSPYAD

B1: SP5 (ssDNA)
DNA: GGGAGAGGAGGGAGATAGATATCAACCATGGTAGGTATTGCTTGGTAGGGATAGTGGGCTTGATGTTTCGTGGATGCCACAGGAC
- binding result (ACE2 ectodomain (ACE2e)): no binding
- binding result [1]: no binding

B2: SP6 (ssDNA)
DNA: GGGAGAGGAGGGAGATAGATATCAACCCATGGTAGGTATTGCTTGGTAGGGATAGTGGGCTTGATGTTTCGTGGATGCCACAGGAC
- binding result (ACE2 ectodomain (ACE2e)): no binding
- binding result [1]: no binding

B3: SP7 (ssDNA)
DNA: GGGAGAGGAGGGAGATAGATATCAAAGGAGGGTAGGTAGTGCTTGGTAGGGAAACTCCGCCGATTTTTCGTGGATGCCACAGGAC
- binding result (ACE2 ectodomain (ACE2e)): no binding
- binding result [1]: no binding

B4: SP8 (ssDNA)
DNA: GGGAGAGGAGGGAGATAGATATCAAAAGGAGGGTAGGTAGTGCTTGGTAGGGAAACTCCGCCGATTTTTCGTGGATGCCACAGGAC
- binding result (ACE2 ectodomain (ACE2e)): no binding
- binding result [1]: no binding
